Assay: soluble fraction after stress (log2 fold change); higher = more stays soluble; pooled small domains, quantitative proteomics
Conditions: stress: 75 degC
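Note: 20 min heating vs room temperature control held 20 min.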

Row | Sequence | soluble fraction (log2)
1 | HMKNDKLLIFMELKGISRTQLSKSTGIPASTLGRIINGDVQKIKAVYMEAIANALDTSIHTIFDV | -1.6
2 | HMLLTASNYFKETKGINFSELPEALQKGHSFVIKSTENGTNWNAYSTSQNIQRVIDAYFSKLDEYLEKNQ | -0.578
3 | HMPIQLLSEKYMDEHWDELDKDEVSLYQNMSIRFLLKHEDDINWKLYSTNPFISIDTIDFFKDKISWVNI | -2.34
4 | HMNKSEFLNELEKRIRVLEKNEIKDILAEYSQHIDMRMGSGLSEAEAIKDFGDMDDLAAEILEAY | -0.277
5 | HMRKSNADALDGKTGIVKEEIKTGGYGYVGIDGDMWRSISESGEAIPAGTKVVVISHESIILTVKPA | -2.23
6 | HMLQKVELSDNEKFIFDSLQKEQKMALLRLKELVNLSNKAWDVSVKNLTKQGLVKVTKIDEELLIEI | -0.845
7 | HMDSDIGQQLKILLTVGTFMPSTELKAIAQQFGMKKPTDLKEWVELESDTQRIKGNPTKGYWINEINDL | -0.682
8 | HMNTEEITYSRFQQMLEAGEISQVSIESNRILILPSEETGIEKVLYTGIINDPGLVERLNSAGVEFRAPIE | -0.31
9 | HMGLDNEGFERLRQKITRLLSEEALPVKELVDSFASKMRQEVLETLAFLQQEGVIEEKNGKLFLK | -0.189
10 | HMFTYEETIGKSADVYLTIPALKAGKGKIIISVRGSVHELDAMTNNAEKISTGAVVKIVRIEHGNILLVEN | -1.69
11 | HMQDLEIKINLGMTYYEVREAIGSPDIIDKINQYGRDFQMWTYYIDDKTKRYYFEDHLLTKI | -2.84
12 | HMKNQQLFNIGDRFQVDGVAYRMEKLFPENGTVEVYNLGVGRHKTMSFEEILALWNSGKLLFEI | -0.966
13 | HMLPVFNYQVYRTHGLIYVYAKDNDSFDQIARSMGFKAKQLMKFNEVPEDFPLQAGDIVYLEKKKK | -2.35
14 | HMELVIGESLAVELLRPGKEDGQALGYLPDGSMVVVNNGRAFVGKRVTAEIIGVIRSAGGKMVFSNLLGE | -3.36
15 | HMGLVLIDSYNDIGSAKLITNKIRNLGLIFEENENKINVFAGPFEKNDINLKIDFLIRNGYTNAQLY | -3.08
16 | HMSNPADDVVDLLRQLRLPHMRAAAPELLATAKAQRWDPAEAIRALLTEELAGRQASSINARRK | -0.477
17 | HMTSLTSDEEQIINVLRAEESVYINALATKSKIPLQKLLGLLIQLEFKGLIHSLPGSHYKIV | -0.221
18 | HMTEALEFTVEDLRMAGLVNSSFSRRRRELFSEKLGIGYGNGKSLLKKLNGYGITREEFNGAIQSLSD | -0.817
19 | HMGSLKISNPVKDTLWIQGVDGLKSIEIYSSTGQLVKTILGNQGDVSSLPKGVYFLKINTPSESLTAKIIK | -1.28
20 | HMIHFDHPERSILDTMLYEKKGMTAQSARNRLAAYQFQGEDVFKPVSVLSGGELSRITLAIKNAMADK | -0.36
21 | HMSTDNINYKNILIASLLIHAAKIDENYTENEKNIIKKALIELDEIDSKKADEIMILAEKKE | -0.265
22 | HMGESEWIVKWRGEKRDEERLQESELVRDDPEHRISVVRPRDDVDASAWLNRWRKSRYVQYIQPNHRVTIS | 0.568
23 | HMKSLLDQINGIGAIRKRALLNHFGSARAVESASLDEIKSVEGVEAKVAKKIYNFFHEYKNMLR | -1.51
24 | HMGAVDIATARQLISEIGLPIMLKAEGGGGGRGIFAIHNEAELEDAFFKASTMAQASFGNPRLFVEKF | -0.441
25 | HMDHWQSVNSALELLEVSRRTLYDYISRKKLQTKKEGKYRYVWIDDDVIEEIKTSKSAYIEINN | -2.21
26 | HMQDLPPIHLSRGMTDYTLVRSRRRTLSMELKRDGTVVVHAPLRLGVEKIDAFVAAHEAWLARARTRQAER | -2.59
27 | HMQVEMVLSQEAHEWLLQRGFIPEYGAREMDRVIAAHLKPLLMREILFGTLKAGGKVRVQVENGALKLQP | -3.08
28 | HMFVEKDSIINKGNNSYNFVITDNNNKVLVEYNGLLPDLFKEEQGVVIEGRLKSDFIIHAFTVF | -0.0707

Row | Sequence | soluble fraction (log2)
29 | HMNEYSLVPDIYGMTYDDALSSLRNVGLDGRLALASTNEDLANADTRVVWQSKEAGSIIDKGSNVMFVID | -0.01
30 | HMNNDFVERLRKLFGHASMAEIARRIDVPHATIRNYFQGRLPAPEVLIKLARETGVSLNWLLTGEGKMFA | -1.19
31 | HMQILPAFLPENPELRARLANHSLEELTEILKQYKTLHNSTDVDTVKRAIRAIEIEEYYAVHPV | -0.731
32 | HMDARSTHIAAIHVLKSKLQLQDSDYRALLLTLTGQTSSKDLSEHQRRAVRNHMQQLAERMGVVQ | -1.46
33 | HMQNYLEVLRLHELGMGQRKIAQQVHTSRDTIRKIIAIAENQGLNYSNLIGKTDNELSKVFG | -0.622
34 | HMGQDLSYYIKIVQNQQPVDPLTGEPKVLDYGEVIRQAQILQMLDTGDLDRDKAIGQLSMKDAL | 0.292
35 | HMEDTSTLSIKHKIKELINQESPQAILSDDKLVELLAAQGIKIARRTIAKYRETMNIPTSAERKRQKRPP | 0.0599
36 | HMTKAGVDAWTRGDYAAAVKEWQAQAAKGDADAIFNLGQAFKLGKGVPQDLIKAEQLFGQAAA | 0.246
37 | HMPKTLTEAAYEDIKQWILEGEITPGSKISLEDTASRLEVSMTPIREALTKLQQEGLVEYIPRAGWRASK | -0.0907
38 | HMQITSTDEIEKMIDELIAANPEQTKQYQNGNHKVAGWFVGQMMKASKGKANPQMVNNLLQKKL | 0.278
39 | HMGYTLDVAHGVTEDMNFSEAFATAREEVGPGGIFYWHGKPYGTYYENEWNAMDEEDKAEYWDAVGRTTA | 0.0888
40 | HMNADRIVGQTAKVIHPITPDEKGRVMVDNLDWAAAAQNRGESFEVGEEVSIVRIEGVTVYVQK | -0.234
41 | HMSASEKLFEARKNLNIVNVLGKNPVDRYDIVKILKHGDHYHIYDSKGNEGITYTNPKSLYPEAEFGEYQG | -0.0642
42 | HMGSDQEAAMARQDRLSTLVDYVVERGSVHVDDIVADLGVSPATVRRDLDALAAQQLIIRTRGGATANHT | 0.034
43 | HMIHANGLTDRQEMILEFIRSYISENNYPPSVREIGKGVGLASSASVHNNMKKLASLGFLNWDTD | -1.93
44 | HMLTNNYKNDKALRFAKNHGIHESNILKLVSLYENAPEKGFNAQSIAELLGITPRSASRILVKLLQHNLIR | -1.8
45 | HMEEQELQLIQFPIASGSAWAGKAVRELILPPETLLVMLIRGTETMIPKGDTMVQEGDTAVLSASAYRDD | -0.472
46 | HMVDDTGLPTVLISDGRLLERNLHRLHLDHTWLQRRLEENNIPSIQSLFLLTVDKQHQLYFLKK | -1.74
47 | HMHHDQQQITAELARIARNGLPGLTADNAIISRLDALNLLINIHDDRGADATPLRGLLPAIADELLRLT | 0.056
48 | HMYALGIPVSQYRRTTQVLGHESSYPIAYEDEKQDDDFYLFKFPNIDEYDFKKIVILLKQNGITT | -2.11
49 | HMQASISVDEAKSIALNYAKFTADQVVYTKSELDYDDGRAEYEIEFYAGGKEYSFTIDAVSGTVLEMEI | -2.26
50 | HMSMPTITLQHYKRGSHYYASIIETFRDPVTRKNSSRTLEALGDISEKMKEDPNYLQSLKDRVKALRSD | -0.899
51 | HMQVSDVTTIRALVEEVLSSSPQQLAQYRAGKLSLKGYFVGQVMKKGKGQLNAAAVNNLLDEIL | -2.41
52 | HMELNELTSRELMVAEQVARGASNREISEALSISERTVKAHLSAAFEKLGVRDRVQLALAMNNIPT | -0.106
53 | HMRNLYEILGVSKDAPQGEIKSAYRKLAKTYHPDLNPNNEKAAELFKEINQAYEVLSDETKRRHYDQFGEA | 0.342
54 | HMTGLSNFEFNQIKLDLMHELTQTPLRLTDLVNRITSFENEKTITVIRFLVDEGILLLKDDTLSVAKID | -3.06
55 | HMDFEEGAVKWFNTKKGYGFITRDQGDDIFVHFRNIKAQSRRSLTDGERVTFVVTEGDKGLQADHVSPV | -0.411

— the domain aggregation screens of Martell et al. (2025)
